The labels stand for the following.
B1: NRC3_wobSeed44_DR1_A6C_o1 (dsDNA)
DNA 1: GCTGACTGAGGTTAAAGATCAGGGAACGTGGCGTCGGCGATTGACAGCGTAGAATGAAGG
DNA 2: CCTTCATTCTACGCTGTCAATCGCCGACGCCACGTTCCCTGATCTTTAACCTCAGTCAGC
B2: NRC3_wobSeed29_DR1_G24A_o1 (dsDNA)
DNA 1: GCGCTTACGGGTCAAAGGTTATAACATGAATAGAATGCGATTGACAGCGTAGAATGAAGG
DNA 2: CCTTCATTCTACGCTGTCAATCGCATTCTATTCATGTTATAACCTTTGACCCGTAAGCGC
B3: NRC3_wobSeed29_DR1_C4A_o1 (dsDNA)
DNA 1: B2 DNA 1 with C4A, A24G
DNA 2: B2 DNA 2 with T37C, G57T
B4: NRC3_wobSeed97_DR4_G27T_o1 (dsDNA)
DNA 1: GCCAAACTAGGTCACGAAAGGTCAAATTCGAATGACGCGATTGACAGCGTAGAATGAAGG
DNA 2: CCTTCATTCTACGCTGTCAATCGCGTCATTCGAATTTGACCTTTCGTGACCTAGTTTGGC
B5: NRC3_wobSeed97_DR4_C29G_o1 (dsDNA)
DNA 1: B4 DNA 1 with T27G, C29G
DNA 2: B4 DNA 2 with G32C, A34C
B6: NRC3_wobSeed28_DR1_T26C_o1 (dsDNA)
DNA 1: GCCCTACTGGGCCAAAGGTCATTGACTCCAATGCTCGCGATTGACAGCGTAGAATGAAGG
DNA 2: CCTTCATTCTACGCTGTCAATCGCGAGCATTGGAGTCAATGACCTTTGGCCCAGTAGGGC
B7: NRC3_wobSeed28_DR1_C12G_o1 (dsDNA)
DNA 1: B6 DNA 1 with C12G, C26T
DNA 2: B6 DNA 2 with G35A, G49C
B8: NRC3_wobSeed124_DR5_A29T_o1 (dsDNA)
DNA 1: GCCCTACTGGGCCATTCAGAGGTCATTGTTCATATGGCGATTGACAGCGTAGAATGAAGG
DNA 2: CCTTCATTCTACGCTGTCAATCGCCATATGAACAATGACCTCTGAATGGCCCAGTAGGGC
B9: NRC3_wobSeed121_DR5_A26T_o1 (dsDNA)
DNA 1: GCCAAACTAGGTCACCGGAAGGTCATAGTCCGCATGGCGATTGACAGCGTAGAATGAAGG
DNA 2: CCTTCATTCTACGCTGTCAATCGCCATGCGGACTATGACCTTCCGGTGACCTAGTTTGGC
B10: NRC3_wobSeed120_DR4_G5C_o1 (dsDNA)
DNA 1: GCCCCAGTAGGTTACGAGGGGGCATTCAGTGCGAATGCGATTGACAGCGTAGAATGAAGG
DNA 2: CCTTCATTCTACGCTGTCAATCGCATTCGCACTGAATGCCCCCTCGTAACCTACTGGGGC
B11: NRC3_wobSeed125_DR5_C15G_o1 (dsDNA)
DNA 1: GCCCTTACGGGTCAGTGACAGGTTATAGCATTTGGAGCGATTGACAGCGTAGAATGAAGG
DNA 2: CCTTCATTCTACGCTGTCAATCGCTCCAAATGCTATAACCTGTCACTGACCCGTAAGGGC
B12: NRC3_wobSeed30_DR1_T5C_o1 (dsDNA)
DNA 1: GCACCAGCAGGCCAAGGGTCACTCAAGATTAGTCCGGCGATTGACAGCGTAGAATGAAGG
DNA 2: CCTTCATTCTACGCTGTCAATCGCCGGACTAATCTTGAGTGACCCTTGGCCTGCTGGTGC
B13: NRC3_wobSeed53_DR2_G9A_o1 (dsDNA)
DNA 1: GCCCTTACAGGTCACGAGGTTATAGCACGACGAGCGGCGATTGACAGCGTAGAATGAAGG
DNA 2: CCTTCATTCTACGCTGTCAATCGCCGCTCGTCGTGCTATAACCTCGTGACCTGTAAGGGC
B14: NRC3_wobSeed33_DR1_T4G_o1 (dsDNA)
DNA 1: GCAGCTCTAGGTAAAAGTTCAGTGAATCCCGAGGATGCGATTGACAGCGTAGAATGAAGG
DNA 2: CCTTCATTCTACGCTGTCAATCGCATCCTCGGGATTCACTGAACTTTTACCTAGAGCTGC
B15: NRC3_wobSeed41_DR1_T4A_o1 (dsDNA)
DNA 1: GCAAATGTAGGTTAAGGGTCATTCAGGTTGGTTCGCGCGATTGACAGCGTAGAATGAAGG
DNA 2: CCTTCATTCTACGCTGTCAATCGCGCGAACCAACCTGAATGACCCTTAACCTACATTTGC
B16: NRC3_wobSeed65_DR2_A5C_o1 (dsDNA)
DNA 1: GCATCTGTAGGTTATCGGGTCATTCAGTTTGCGCATGCGATTGACAGCGTAGAATGAAGG
DNA 2: CCTTCATTCTACGCTGTCAATCGCATGCGCAAACTGAATGACCCGATAACCTACAGATGC
B17: NRC3_wobSeed40_DR1_G16A_o1 (dsDNA)
DNA 1: GCTAGCCTAGGTCATAGGCCAGTATACCACGCGAACGCGATTGACAGCGTAGAATGAAGG
DNA 2: CCTTCATTCTACGCTGTCAATCGCGTTCGCGTGGTATACTGGCCTATGACCTAGGCTAGC
B18: NRC3_wobSeed76_DR3_A16C_o1 (dsDNA)
DNA 1: GCCCTACTGGGCCAACAAGGTCATTGATGCCGATAAGCGATTGACAGCGTAGAATGAAGG
DNA 2: CCTTCATTCTACGCTGTCAATCGCTTATCGGCATCAATGACCTTGTTGGCCCAGTAGGGC
B19: NRC3_wobSeed25_DR1_A5T_o1 (dsDNA)
DNA 1: GCCATACTAGGTCAAAGGTCAAAGTCGAGCCAACCAGCGATTGACAGCGTAGAATGAAGG
DNA 2: CCTTCATTCTACGCTGTCAATCGCTGGTTGGCTCGACTTTGACCTTTGACCTAGTATGGC
B20: NRC3_wobSeed25_DR1_A6T_o1 (dsDNA)
DNA 1: B19 DNA 1 with T5A, A6T
DNA 2: B19 DNA 2 with T55A, A56T
B21: NRC3_wobSeed25_DR1_G24A_o1 (dsDNA)
DNA 1: B19 DNA 1 with T5A, G24A
DNA 2: B19 DNA 2 with C37T, A56T
B22: NRC3_wobSeed64_DR2_G19A_o1 (dsDNA)
DNA 1: GCTAGCCTAGGTCATTGGACCAGTATAGTACGCATCGCGATTGACAGCGTAGAATGAAGG
DNA 2: CCTTCATTCTACGCTGTCAATCGCGATGCGTACTATACTGGTCCAATGACCTAGGCTAGC
B23: NRC3_wobSeed66_DR2_A6T_o1 (dsDNA)
DNA 1: GCAATTCAGGGTCACTAGGCCAGAGTAGGTACGAATGCGATTGACAGCGTAGAATGAAGG
DNA 2: CCTTCATTCTACGCTGTCAATCGCATTCGTACCTACTCTGGCCTAGTGACCCTGAATTGC
B24: NRC3_wobSeed77_DR3_A18G_o1 (dsDNA)
DNA 1: GCACTTACGGGTCAACGGGGTTATAGCACGCGTATAGCGATTGACAGCGTAGAATGAAGG
DNA 2: CCTTCATTCTACGCTGTCAATCGCTATACGCGTGCTATAACCCCGTTGACCCGTAAGTGC

Substitutions are numbered along the chain they refer to.

For the data set, the target named is PPARa:RXRa (Homo sapiens, UniProt Q07869;P19793 full;full). Description: no ligand; PBM; 270 nM : 90 nM RXRa; PBS pH 7.4, 2% milk, 0.02% Triton X-100, 1 mM DTT, BSA, 0.4 mg/ml salmon testes DNA. Conditions: tags: GST kept;His cleaved; copies: 1;1; label: surface-attached array probe. Put shortly: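 Each nuclear receptor dimer, without ligand, was incubated for 1 h on custom Agilent 4×180K protein-binding microarrays. Binding was detected with antibodies against each partner (one per run), and scanned fluorescence was regression-normalized. The binding z-scores are referenced to random human genomic background probes.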
PPARa:RXRa, sequence (Q07869 whole entry, chain 1 of 2): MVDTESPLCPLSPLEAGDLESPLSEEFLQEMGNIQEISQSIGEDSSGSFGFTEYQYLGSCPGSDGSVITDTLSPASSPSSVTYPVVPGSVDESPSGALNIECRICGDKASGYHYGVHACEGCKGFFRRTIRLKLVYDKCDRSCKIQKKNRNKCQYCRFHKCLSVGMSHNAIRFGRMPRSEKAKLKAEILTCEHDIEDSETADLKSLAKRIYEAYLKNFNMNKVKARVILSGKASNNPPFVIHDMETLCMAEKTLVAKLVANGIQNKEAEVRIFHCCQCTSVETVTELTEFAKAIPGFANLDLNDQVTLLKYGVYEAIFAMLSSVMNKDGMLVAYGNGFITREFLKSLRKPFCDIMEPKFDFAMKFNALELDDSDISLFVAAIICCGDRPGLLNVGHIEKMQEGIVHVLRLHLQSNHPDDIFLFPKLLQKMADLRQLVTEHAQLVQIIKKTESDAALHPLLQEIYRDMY
PPARa:RXRa, sequence (P19793 whole entry, chain 2 of 2): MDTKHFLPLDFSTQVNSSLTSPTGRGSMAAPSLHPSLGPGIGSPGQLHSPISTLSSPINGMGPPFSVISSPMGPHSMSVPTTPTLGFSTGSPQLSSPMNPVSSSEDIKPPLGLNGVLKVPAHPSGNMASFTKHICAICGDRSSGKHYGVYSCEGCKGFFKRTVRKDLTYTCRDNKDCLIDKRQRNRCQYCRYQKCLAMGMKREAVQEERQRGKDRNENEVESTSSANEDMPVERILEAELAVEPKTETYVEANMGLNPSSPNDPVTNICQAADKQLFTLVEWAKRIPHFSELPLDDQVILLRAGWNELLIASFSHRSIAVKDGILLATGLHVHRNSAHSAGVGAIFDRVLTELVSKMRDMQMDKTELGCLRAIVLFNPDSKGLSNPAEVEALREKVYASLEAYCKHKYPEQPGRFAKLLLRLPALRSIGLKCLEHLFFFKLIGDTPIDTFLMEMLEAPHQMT
For the molecule B1, the binding signal was 3.82 PBM z-score against 500 random probes.

On to B2, for which the binding signal is 7.28 PBM z-score against 500 random probes.

For the molecule B3, the binding signal is 7.27 PBM z-score against 500 random probes.

For the molecule B4, the binding signal was 7.06 PBM z-score against 500 random probes.

Turning to B5, the binding signal was 6.97 PBM z-score against 500 random probes.

Turning to B6, the binding signal was 6.99 PBM z-score against 500 random probes.

Regarding B7, the binding signal was 6.86 PBM z-score against 500 random probes.

Turning to B8, the binding signal is 3.73 PBM z-score against 500 random probes.

As to B9, the binding signal was 6.6 PBM z-score against 500 random probes.

Regarding B10, the binding signal was 3.76 PBM z-score against 500 random probes.

Take B11: the binding signal is 3.89 PBM z-score against 500 random probes.

In the case of B12, the binding signal is 3.87 PBM z-score against 500 random probes.

As for B13, the binding signal is 6.65 PBM z-score against 500 random probes.

Regarding B14, the binding signal was 3.86 PBM z-score against 500 random probes.

Turning to B15, the binding signal is 6.91 PBM z-score against 500 random probes.

On to B16, for which the binding signal was 3.8 PBM z-score against 500 random probes.

Regarding B17, the binding signal is 3.72 PBM z-score against 500 random probes.

For B18, the binding signal was 3.78 PBM z-score against 500 random probes.

Regarding B19, the binding signal was 8.27 PBM z-score against 500 random probes.

Take B20: the binding signal was 8.22 PBM z-score against 500 random probes.

On to B21, for which the binding signal was 8.04 PBM z-score against 500 random probes.

Take B22: the binding signal is 3.84 PBM z-score against 500 random probes.

For the molecule B23, the binding signal was 6.63 PBM z-score against 500 random probes.

In the case of B24, the binding signal was 6.51 PBM z-score against 500 random probes.
